From patent US20220064302A1 (GIGAGEN, published 2022)

B1: A1 (antibody, V domains shown)
VH: QVQLVESGGGVVQPGRSLRLSCAASGFTFSNYGMHWVRQAPGKGLEWVAVIWYDGSNKYYTDSVKGRFTISRDNSKNTLYLQMNSLRAEDTAVYYCAGGGNYYGDYWGQGTLVTVSS
VL: DIQMTQSPSSLSASVGDRVTITCRASQGIRNDLGWYQQKPGKAPKRLIYVASSLQSGVPSRFSGSGSGTEFTLTISSLQPEDFATYYCLQHNSYPLTFGGGTKVEIKR
notes: Tested as full-length mAb expressed in CHO cells; also called antibody A1; L1H1
B2: A2 (antibody, V domains shown)
VH: QVQLVESGGGVVQPGRSLRLSCAASGFTFSSYGMHWVRQAPGKGLEWVALISYDGSNKYYADSVKGRFTISRDNSKNTLYLQMNSLRAEDTAVYYCARGGYFDPYGDYYYGMDVWGQGTTVTVSS
VL: DIQMTQSPSSLSASVGDRVTITCRASQAIRNDLGWFQQKPGKAPKRLIYAASSLQSGVPLRFSGSGSGTEFTLTISSLQPEDFATYYCLQHNSFPWTFGQGTKVEIKR
notes: Tested as full-length mAb expressed in CHO cells; also called antibody A2; L2H2
B3: A3 (antibody, V domains shown)
VH: QVQLVESGGGEVQPGRSLRLSCAASGFTFSDYGMHWVRQAPGKGLEWVAVIWYDGSNKYYADSVKGRFTISRDNSKNTLYLQMNSLRAEDTAVYYCAGGGSYWGDYWGQGTLVTVSS
VL: DIQMTQSPSSLSASVGDRVTITCRASQGIRNELGWYQQKPGKAPKRLIYAASSLQSGVPSRFSGSGSGTEFTLTISSLQPEDFATYYCLQHYIYPWTFGQGTKVEIKR
notes: Tested as full-length mAb expressed in CHO cells; also called antibody A3; L3H3
B4: A6 (antibody, V domains shown)
VH: QVQLVESGGGVVQPGRSLRLSCAASGFTFSSYGMHWVRQAPGKGLEWVAVIWYDGSNKYYADSVKGRFTISRDNSKNTLYLQMNSLRAEDTAVYYCAGGGNYWGDFWGQGTLVTVSS
VL: DIQMTQSPSSLSASVGDRVTITCRASQGIRNDLGWYQQKPGKAPKRLLYAASNLQLGVPSRFSGSGSETEFTLTISSLQPEDFATYYCLQHNSYPWTFGQGTKVEIKR
notes: Tested as full-length mAb expressed in CHO cells; also called antibody A6; L6H6
B5: Pembrolizumab (antibody, V domains shown)
VH: QVQLVQSGVEVKKPGASVKVSCKASGYTFTNYYMYWVRQAPGQGLEWMGGINPSNGGTNFNEKFKNRVTLTTDSSTTTAYMELKSLQFDDTAVYYCARRDYRFDMGFDYWGQGTTVTVSS
VL: EIVLTQSPATLSLSPGERATLSCRASKGVSTSGYSYLHWYQQKPGQAPRLLIYLASYLESGVPARFSGSGSGTDFTLTISSLEPEDFAVYYCQHSRDLPLTFGGGTKVEIKR
B6: A5 (antibody, V domains shown)
VH: QVQLVESGGGVVQPGRSLRLSCAASGFTFSNYGTHWVRQAPGKGLEWVAVIWYDGSNKYYADSVKGRFTISRDNSKNTLYLQMNSLRAEDTAVYYCARDRIYCSSTRCIGFGYYYYGMDVWGQGTTVTVSS
VL: AIQLTQSPSSLSASVGDRVTITCRASQGISSALAWYQQKPGKAPKLLIYDASSLESGVPSRFSGSGSGTDFTLTISSLQPEDFATYYCQQFNNYPWTFGQGTKVEIKR
notes: Tested as full-length mAb expressed in CHO cells; also called antibody A5; L5H5
B7: A9 (antibody, V domains shown)
VH: QVQLVESGGGVVQPGRSLRLSCAASGFTFSNYGMHWVRQAPGKGLEWVAVIWYDGTNKFYADSVKGRFTISRDNSKNTLYLQMNSLRAEDTAVYYCATNSDDYWGQGTLVTVSS
VL: AIQMTQSPSSLSASVGDRVTITCRASQDIRNDLGWYQQKPGKAPKLLIYAASLLRSGVPSRFSGSGSGTDFTLTISSLQPEDFATYYCLQDNNYPRTFGQGTKVEIK
notes: Tested as full-length mAb expressed in CHO cells; also called antibody A9; L9H9
B8: A7 (antibody, V domains shown)
VH: QVQLVQSGAEVKKPGASVKVSCKASGYTFTSYGINWVRQAPGQGLEWMGWISAYNGNRNYAQNLQGRVTMTSDTSTNTAYMELRSLRSYDTAVYYCARDHYDILTGYYKGGFDYWGQGTLVTVSS
VL: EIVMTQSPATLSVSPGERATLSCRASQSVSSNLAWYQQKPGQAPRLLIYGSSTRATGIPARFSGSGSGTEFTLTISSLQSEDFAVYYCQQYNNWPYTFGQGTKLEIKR
notes: Tested as full-length mAb expressed in CHO cells; also called antibody A7; L7H7
B9: A10 (antibody, V domains shown)
VH: QVQLVQSGAEVKKPGASVKVSCKASGYTFAIYGISWVRQAPGQGLEWMGWISAYSDNSNYAQKLQGRVTMTTDTSTSTAYMELRSLRSDDTAVYYCVRDGSHGDYYYGMDVWGQGTTVTVSS
VL: DIQMTQSPSSLSASVGDRVTITCRASQGISSWLAWYQQKPEKAPKSLIYAASSLQSGVPSRFSGSGSGTDFTLTISSLQPEDFATYYCQQYNSYPYTFGQGTKLEIK
notes: Tested as full-length mAb expressed in CHO cells; also called antibody A10; L10H10
B10: A4 (antibody, V domains shown)
VH: QVQLVQSGAEVKKPGASVKVSCKASGYTFATYGVSWVRQAPGQGLEWMGWISAYSDNINYAQNLQGRVTITTDTSTSTAYMELRSLRSDDTAVYYCARDGSHGDYYYGMDVWGQGTTVTVSS
VL: DIQMTQSPSSLSASVGDRVTITCRASQGISSWLAWYQQKPEKAPKSLIYAASSLQSGVPSRFSGSGSGTDFTLTISSLQPEDFATYYCQQYNSYPYTFGQGTKLEIKR
notes: Tested as full-length mAb expressed in CHO cells; also called antibody A4; L4H4
B11: A11 (antibody, V domains shown)
VH: QVQLVQSGAEVKKPGASVKVSCRASGYTFTNYGISWVRQAPGQGLEWMGWISVYSDNTHYPQKLQGRVTMTTDTSTSTAYMELRSLRSDDTAVYYCARDGSHGDYYYVMDLWGQGTTVTVSS
VL: DIQMTQSPSSLSASVGDSITITCRASQGISSWLAWYQQKPEKAPKSLIYAASSLQSGVPSRFSGSGSGTDFTLTISSLQPEDFATYYCQQFNSYPYTFGQGTKLEIK
notes: Tested as full-length mAb expressed in CHO cells; also called antibody A11; L11H11
B12: A14 (antibody, V domains shown)
VH: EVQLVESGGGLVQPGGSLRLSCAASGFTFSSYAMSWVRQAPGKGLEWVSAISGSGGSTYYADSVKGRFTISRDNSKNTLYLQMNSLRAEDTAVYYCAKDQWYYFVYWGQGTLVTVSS
VL: DIQMTQSPSSLSASVGDRVTITCRASQGIRNDLGWYQQKPGKAPKRLIYVASSLQSGVPSRFSGSGSGTEFTLTISSLQPEDFATYYCLQHNSYPLTFGGGTKVEIK
notes: Tested as full-length mAb expressed in CHO cells; also called antibody 14; L14H14
B13: A8 (antibody, V domains shown)
VH: QVQLVESGGGVVQPGRSLRLSCAASGFTFSSYGMHWVRQAPGKGLEWVAVIWYDGSIKYYADSVKGRFTISRDNSKNTLYLQMNSLRAEDTAVYYCANDILTGSFDYWGQGTLVTVSS
VL: EIVLTQSPATLSLSPGERATLSCRASQSVSSYLAWYQQKPGQAPRLLIYDASNRATGIPARFSGSGSGTDFTLTISSLEPEDFAVYYCQQRNTWPYTFGQGTKLEIKR
notes: Tested as full-length mAb expressed in CHO cells; also called antibody A8; L8H8

Tests used:
PD-1 expressed on cells [1] = molecular target: T1, PD-1 expressed on cells (human, UniProt Q15116 25-288); assay: cell-based or functional assay
[2] = molecular target: T2, human PD-1 (soluble PD-1 protein, R&D Systems) (human, UniProt Q15116 25-170, limits assumed); assay: array SPR (Carterra), mAb captured, PD-1 as analyte
T2 construct: the kinetics paragraphs say only 'PD-1' / 'antigen'; also called hPD-1; soluble PD-1 immunogen
Method: (§1) For SPR, a moderate density (»1,000 Response Units) of an antihuman IgG-Fc reagent (Southern Biotech 2047-01) was amine-coupled to a Xantec CMD-50M chip (50 nm carboxymethyldextran medium density of functional groups) activated with 133 mM EDC (Sigma) and 33.3 mM S-NHS (ThermoFisher) in 100 mM MES pH 5.5. Then, goat anti-Human IgG Fc (Southern Biotech 2047-01) was coupled for 10 minutes at […] in 10 mM Sodim Acetate pH 4.5 (Carterra Inc.). The surface was then deactivated with 1 M ethanolamine pH 8.5 (Carterra Inc.). Running buffer used for the lawn immobilization was HBS-EPC (10 mM HEPES, 150 mM NaCl, 3 mM EDTA, 0.05% Tween 20, pH 7.4; Teknova).
(§2) The sensor chip was then transferred to a continuous flow microspotter (CFM; Carterra Inc.) for array capturing. The mAb supernatants were diluted 50-fold ([…] final concentration) into HBS-EPC with 1 mg/mL BSA. The samples were each captured twice with 15-minute and 4-minute capture steps on the first and second prints, respectively, to create multiple densities, using a […] flow rate. The running buffer in the CFM was also HBS-EPC.
(§3) Next, the sensor chip was loaded onto an SPR reader (MX-96 system; Ibis Technologies) for the kinetic analysis. […] PD-1 injections were 5 minutes with a 15-minute dissociation at […] in a non-regenerative kinetic series. An injection of the goat anti-Human IgG Fc capture antibody at […] was injected at the end of the series to verify the capture level of each mAb. Binding data was double referenced by subtracting an interspot surface and a blank injection and analyzed for ka (on-rate), kd (off-rate), and KD (affinity) using the Kinetic Interaction Tool software (Carterra Inc.).

[3] = molecular target: T2, human PD-1 (soluble PD-1 protein, R&D …); assay: array SPR, mAb captured on anti-human IgG Fc, PD-1 as analyte
Method: as §1, §2, §3

Cyno PD-1 = molecular target: T3, Cyno PD-1 (cyno); assay: BLI, mAb on AHC biosensor, cyno PD-1 as analyte
T3 construct: also called cynomolgus PD-1
Method: The binding specificity and affinity of each full-length antibody towards PD-1 were determined using BLI and/or SPR. […] Anti-cyno PD-1 affinity was measured using BLI.
(§4) For BLI, antibodies were loaded onto an Anti-Human IgG Fc (AHC) biosensor using the Octet Red96 system (ForteBio). Loaded biosensors were dipped into antigen dilutions beginning at 300 nM, with 6 serial dilutions at 1:3. Kinetic analysis was performed using a 1:1 binding model and global fitting.

PD-1 expressed on cells [4] = molecular target: T1, PD-1 expressed on cells; assay: flow cytometry on PD-1 expressing Flp-In CHO cells
[5] = molecular target: T2, human PD-1 (soluble PD-1 protein, R&D …); assay: BLI (Octet Red96), mAb on AHC biosensor, PD-1 as analyte
Method: as §4

T1 sequence (Q15116 25-288 limits assumed): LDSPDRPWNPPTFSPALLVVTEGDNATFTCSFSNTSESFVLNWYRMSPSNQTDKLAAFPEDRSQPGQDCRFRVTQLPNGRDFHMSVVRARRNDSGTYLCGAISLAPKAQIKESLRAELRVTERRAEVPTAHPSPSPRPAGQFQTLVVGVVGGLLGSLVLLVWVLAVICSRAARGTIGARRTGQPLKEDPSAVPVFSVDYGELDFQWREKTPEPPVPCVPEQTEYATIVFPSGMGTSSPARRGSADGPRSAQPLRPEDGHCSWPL
T2 sequence (Q15116 25-170 limits assumed): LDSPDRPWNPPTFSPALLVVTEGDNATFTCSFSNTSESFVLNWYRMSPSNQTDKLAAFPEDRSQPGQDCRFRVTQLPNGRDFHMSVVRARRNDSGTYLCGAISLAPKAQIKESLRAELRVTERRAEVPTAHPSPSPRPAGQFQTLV

| Binder | PD-1/PD-L1 blockage (IC50, µg/ml) (PD-1 expressed on cells [1]) | Kd [2] | koff [2] | kon [2] | Kd [3] | Kd (Cyno PD-1) | binding result [3] | binding result (PD-1 expressed on cells [4]) | binding result [5] |
| --- | --- | --- | --- | --- | --- | --- | --- | --- | --- |
| B1 | 2.39 µg/mL | 3.7 nM | 2.6e-05 s⁻¹ | 7000 M⁻¹ s⁻¹ | 3.7 nM |  |  |  |  |
| B2 |  | 130 nM | 0.011 s⁻¹ | 80000 M⁻¹ s⁻¹ | 130 nM |  |  |  |  |
| B3 | 1.34 µg/mL | 230 nM | 0.0024 s⁻¹ | 10000 M⁻¹ s⁻¹ | 230 nM |  |  |  |  |
| B4 | 1.12 µg/mL | 70 nM | 0.00086 s⁻¹ | 12000 M⁻¹ s⁻¹ | 70 nM | 26 nM |  |  |  |
| B5 |  |  |  |  |  | 14 nM |  |  |  |
| B6 | 1.31 µg/mL | 35 nM | 0.00023 s⁻¹ | 6400 M⁻¹ s⁻¹ | 35 nM |  |  |  |  |
| B7 | 0.461 µg/mL | 24 nM | 0.00079 s⁻¹ | 32000 M⁻¹ s⁻¹ | 24 nM | 42 nM |  |  |  |
| B8 |  | 160 nM | 0.002 s⁻¹ | 12000 M⁻¹ s⁻¹ | 160 nM |  |  |  |  |
| B9 | 1.64 µg/mL | 10 nM | 6.9e-05 s⁻¹ | 6600 M⁻¹ s⁻¹ | 10 nM | 12 nM |  |  |  |
| B10 | 2.12 µg/mL | 20 nM | 0.00025 s⁻¹ | 12000 M⁻¹ s⁻¹ | 20 nM | 0.1 nM |  |  |  |
| B11 | 1.31 µg/mL |  |  |  |  |  | no binding (tested: PD-1 injected up to 500 nM) |  |  |
| B12 |  |  |  |  |  |  |  | binds | no binding (tested: antigen dilutions beginning at 300 nM) |
| B13 |  | 410 nM | 0.035 s⁻¹ | 84000 M⁻¹ s⁻¹ | 410 nM | 447 nM |  |  |  |
